Results on 17 molecules are retold here after patent US20170342167A1 (Hoffmann-La Roche, published 2017).

The target in test [1] is T1, human neonatal Fc-receptor (FcRn) (human, UniProt P55899 24-297; P61769 21-119, limits assumed, biotinylated (site not stated), coupled to streptavidin sepharose).
T1 construct: also called FcRn receptor
The experiment in a line: FcRn affinity chromatography, anti-HER2 antibody.

In test [2] the target is T1, human neonatal Fc-receptor (FcRn). Description: FcRn affinity chromatography.

T1 sequence (P55899 24-297 limits assumed, chain 1 of 2): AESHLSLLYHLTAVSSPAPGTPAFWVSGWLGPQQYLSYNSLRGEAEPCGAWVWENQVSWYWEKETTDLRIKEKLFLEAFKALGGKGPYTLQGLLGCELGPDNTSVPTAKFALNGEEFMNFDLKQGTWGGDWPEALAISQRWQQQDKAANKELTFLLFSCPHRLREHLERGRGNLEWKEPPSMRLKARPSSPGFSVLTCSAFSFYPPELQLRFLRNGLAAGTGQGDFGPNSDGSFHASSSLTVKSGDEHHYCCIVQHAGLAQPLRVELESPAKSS
T1 sequence (P61769 21-119 limits assumed, chain 2 of 2): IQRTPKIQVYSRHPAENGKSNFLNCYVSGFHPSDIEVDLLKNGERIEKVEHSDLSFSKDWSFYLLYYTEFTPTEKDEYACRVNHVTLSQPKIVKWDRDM

In the case of “anti-HER2 antibody symmetrically modified with E258H”, the retention time in test [1] stood at 45.6 min. Same read-out and setting: the figure for “anti-HER2 antibody symmetrically modified with L309H” is 45.5 min; for “anti-HER2 antibody symmetrically modified with K317H” it is 46.3 min. “anti-HER2 antibody symmetrically modified with E430H” came in with a retention time in test [1] of 46.4 min. Still for that read-out and setting: as for anti-HER2 antibody, wild-type, the figure is 46.3 min.

Take “anti-HER2 antibody symmetrically modified with Q311H”: the retention time in test [1] was 46.3 min.

“anti-HER2 antibody symmetrically modified with K288E” showed a retention time in test [1] of 45.2 min.

In the case of “anti-HER2 antibody symmetrically modified with N434H”, the retention time in test [1] was found to be 52 min. Still for that read-out and setting: as for “anti-HER2 antibody symmetrically modified with K290H”, the figure is 46.2 min; as for “anti-HER2 antibody symmetrically modified with T256H”, 46 min. On the same count and under the same terms, as for “anti-HER2 antibody symmetrically modified with R255D”, the figure is 41.4 min.

B1: IgG1 Fc-region with L234A/L235A/P329G and H310A/H433A/Y436A in both Fc-region polypeptides (other)
chain: DKTHTCPPCPAPEAAGGPSVFLFPPKPKDTLMISRTPEVTCVVVDVSHEDPEVKFNWYVDGVEVHNAKTKPREEQYNSTYRVVSVLTVLAQDWLNGKEYKCKVSNKALGAPIEKTISKAKGQPREPQVYTLPPSRDELTKNQVSLTCLVKGFYPSDIAVEWESNGQPENNYKTTPPVLDSDGSFFLYSKLTVDKSRWQQGNVFSCSVMHEALANHATQKSLSLSPGK
notes: As m2; Positions are EU numbers, not positions on the entry; also called HHY-AAA mutation
As to B1, the binding result in test [2] is on record as “no binding (tested: retention time below 3 minutes)”.

B2: IgG1 Fc-region with L234A/L235A/P329G and H310A/Y436A in both Fc-region polypeptides (other)
chain: DKTHTCPPCPAPEAAGGPSVFLFPPKPKDTLMISRTPEVTCVVVDVSHEDPEVKFNWYVDGVEVHNAKTKPREEQYNSTYRVVSVLTVLAQDWLNGKEYKCKVSNKALGAPIEKTISKAKGQPREPQVYTLPPSRDELTKNQVSLTCLVKGFYPSDIAVEWESNGQPENNYKTTPPVLDSDGSFFLYSKLTVDKSRWQQGNVFSCSVMHEALHNHATQKSLSLSPGK
notes: As m2; Positions are EU numbers, not positions on the entry
On to B2, for which the binding result in test [2] was “no binding (tested: retention time below 3 minutes)”.

B3: IgG1 Fc-region with L234A/L235A/P329G and H310A/H435A in both Fc-region polypeptides (other)
chain: DKTHTCPPCPAPEAAGGPSVFLFPPKPKDTLMISRTPEVTCVVVDVSHEDPEVKFNWYVDGVEVHNAKTKPREEQYNSTYRVVSVLTVLAQDWLNGKEYKCKVSNKALGAPIEKTISKAKGQPREPQVYTLPPSRDELTKNQVSLTCLVKGFYPSDIAVEWESNGQPENNYKTTPPVLDSDGSFFLYSKLTVDKSRWQQGNVFSCSVMHEALHNAYTQKSLSLSPGK
notes: as for B2
In the case of B3, the binding result in test [2] is “no binding (tested: retention time below 3 minutes)”.

B4: IgG1 Fc-region with L234A/L235A/P329G and I253A/H435A in both Fc-region polypeptides (other)
chain: DKTHTCPPCPAPEAAGGPSVFLFPPKPKDTLMASRTPEVTCVVVDVSHEDPEVKFNWYVDGVEVHNAKTKPREEQYNSTYRVVSVLTVLHQDWLNGKEYKCKVSNKALGAPIEKTISKAKGQPREPQVYTLPPSRDELTKNQVSLTCLVKGFYPSDIAVEWESNGQPENNYKTTPPVLDSDGSFFLYSKLTVDKSRWQQGNVFSCSVMHEALHNAYTQKSLSLSPGK
notes: as for B2
As for B4, the binding result in test [2] is “no binding (tested: retention time below 3 minutes)”.

B5: IgG1 Fc-region with L234A/L235A/P329G and I253A/H310A/H435A in both Fc-region polypeptides (other)
chain: DKTHTCPPCPAPEAAGGPSVFLFPPKPKDTLMASRTPEVTCVVVDVSHEDPEVKFNWYVDGVEVHNAKTKPREEQYNSTYRVVSVLTVLAQDWLNGKEYKCKVSNKALGAPIEKTISKAKGQPREPQVYTLPPSRDELTKNQVSLTCLVKGFYPSDIAVEWESNGQPENNYKTTPPVLDSDGSFFLYSKLTVDKSRWQQGNVFSCSVMHEALHNAYTQKSLSLSPGK
notes: As m2; Positions are EU numbers, not positions on the entry; also called IHH-AAA mutation
As for B5, in test [2], the binding result is listed as “no binding (tested: retention time below 3 minutes)”.

B6: IgG1 Fc-region with L234A/L235A/P329G and I253A/H310A in both Fc-region polypeptides (other)
chain: DKTHTCPPCPAPEAAGGPSVFLFPPKPKDTLMASRTPEVTCVVVDVSHEDPEVKFNWYVDGVEVHNAKTKPREEQYNSTYRVVSVLTVLAQDWLNGKEYKCKVSNKALGAPIEKTISKAKGQPREPQVYTLPPSRDELTKNQVSLTCLVKGFYPSDIAVEWESNGQPENNYKTTPPVLDSDGSFFLYSKLTVDKSRWQQGNVFSCSVMHEALHNHYTQKSLSLSPGK
notes: as for B2
As to B6, the binding result in test [2] was “no binding (tested: retention time below 3 minutes)”.
